From patent US5604203A, “Analogs of peptide YY and uses thereof” (University of Cincinnati, priority 1994, dated 1997)
Where two headings read alike, the source gives them in different places. One block for each molecule: values may come before it. Square brackets hold non-standard residues; d marks the D form. Peptide text beside a SMILES is read from it. Phe(4-Cl) = N[C@@H](Cc1ccc(Cl)cc1)C(=O)O

Experiments:
[1] = biological target: T1, intestinal PYY-preferring receptors (Rattus norvegicus, UniProt Q9ERC0); details: BINDING IC50 (nM), Table 1; 125I-PYY, rat jejunal membranes; mean of three separate experiments
T1 sequence (Q9ERC0 1-381): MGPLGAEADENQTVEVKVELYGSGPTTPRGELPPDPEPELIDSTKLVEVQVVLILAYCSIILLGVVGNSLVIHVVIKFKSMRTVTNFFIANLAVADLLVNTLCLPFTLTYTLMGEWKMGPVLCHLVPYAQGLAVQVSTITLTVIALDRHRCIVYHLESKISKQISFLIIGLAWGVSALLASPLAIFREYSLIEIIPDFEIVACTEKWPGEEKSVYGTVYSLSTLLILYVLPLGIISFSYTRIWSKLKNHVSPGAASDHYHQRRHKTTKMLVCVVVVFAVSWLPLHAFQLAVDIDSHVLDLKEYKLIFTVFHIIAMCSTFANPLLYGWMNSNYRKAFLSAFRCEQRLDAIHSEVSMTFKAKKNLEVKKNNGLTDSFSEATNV
Method: Bound and free peptides were separated by centrifugation at 20,000×g for 10 min.
All points in the binding experiments are the mean of at least three experiments performed in duplicate.

rat jejunal mucosa [2] = experiment: Short circuit current (SCC) in voltage clamped rat jejunal mucosa (antisecretory effect); assay type: cell-based; details: for EC50: Table 1, reduction of baseline SCC, rat jejunum, mean of three separate experiments
Method: The antisecretory effects of the peptides were investigated by measuring the short-circuit current (SCC) in rat jejunal mucosa mounted in a Ussing chamber and automatically voltage clamped as described by Cox et al. (J. Physiol. supra). Briefly, strips of mucosa were placed between two halves of perspex Ussing chambers (window size, 0.6 cm^2) containing oxygenated (95% O2 /5% CO2) Krebs-Henseleit solution (NaCl, 117 mM, KCl 4.7 mM, CaCl2, 2.5 mM; MgSO4 1.2 mM, NaHCO3 24.8 mM and glucose 11.1 mM), pH 7.4, 37° C. […] Once a stable baseline SCC was reached, peptides were added to the basolateral reservoir only, and cumulative concentration-response profiles constructed.

[3] = biological target: PYY receptor of rat jejunal epithelial plasma membranes (rat); experiment: competition with 125I-PYY on rat jejunal membranes
[4] = biological target: PYY receptor of rat jejunal epithelial plasma membranes (rat); experiment: competition with 0.05 nM 125I-PYY on rat jejunal epithelial plasma membranes
[5] = biological target: PYY receptor of rat jejunal epithelial plasma membranes (rat); experiment: competition with 125I-PYY on rat jejunal epithelial plasma membranes
[6] = biological target: PYY receptor of rat jejunal epithelial plasma membranes (rat)
rat jejunal mucosa [7] = details: Cox et al. Peptides, supra; cited from earlier work
[8] = biological target: PYY receptor of rat jejunal epithelial plasma membranes (rat); remark: listed apart in the source
[9] = biological target: PYY receptor of rat jejunal epithelial plasma membranes (rat); experiment: competitive binding, done as described above (125I-PYY, rat jejunal membranes)
[10] = biological target: PYY receptor of rat jejunal epithelial plasma membranes (rat); remark: listed apart in the source

IC50 [9]: 0.1 nM
Molecule: Ac-YSLRHFLNLVTRQRY-NH2 [N-α-Ac-[Tyr^22, Phe^27 ]PYY(22-36)]

antisecretory potency against PYY (times less potent than PYY) [10]: 9
maximal inhibitory response of SCC [10]: -12 µA/0.6 cm^2
IC50 [4]: 0.8 nM
percent increase of receptor affinity against N-α-Ac-PYY(22-36) [5]: 28%
SCC EC50 [6]: 15.1 nM
Molecule: Ac-ASLRHFLNLVTRQRY-NH2 [N-α-Ac-[Phe^27 ]PYY(22-36)]

IC50 [4]: 50 nM
SCC EC50 [6]: 124 nM
B1: N-α-Ac-[p.ClPhe^26 ]PYY(22-36) (peptide)
peptide: ASLRXYLNLVTRQRY
HELM: PEPTIDE1{[ac].A.S.L.R.[O=C([C@H](Cc1ccc(Cl)cc1)N[*:1])[*:2]].Y.L.N.L.V.T.R.Q.R.Y.[am]}$$$$V2.0
SMILES: CC(=O)N[C@@H](C)C(=O)N[C@@H](CO)C(=O)N[C@@H](CC(C)C)C(=O)N[C@@H](CCCNC(=N)N)C(=O)N[C@@H](Cc1ccc(Cl)cc1)C(=O)N[C@@H](Cc1ccc(O)cc1)C(=O)N[C@@H](CC(C)C)C(=O)N[C@@H](CC(N)=O)C(=O)N[C@@H](CC(C)C)C(=O)N[C@H](C(=O)N[C@H](C(=O)N[C@@H](CCCNC(=N)N)C(=O)N[C@@H](CCC(N)=O)C(=O)N[C@@H](CCCNC(=N)N)C(=O)N[C@@H](Cc1ccc(O)cc1)C(N)=O)[C@@H](C)O)C(C)C

IC50 [9]: 4.5 nM
B2: N-α-Ac-[Thz^26, Phe^27 ]PYY(22-36) (peptide)
peptide: ASLRXFLNLVTRQRY
HELM: PEPTIDE1{[ac].A.S.L.R.[O=C([C@H](Cc1cscn1)N[*:1])[*:2]].F.L.N.L.V.T.R.Q.R.Y.[am]}$$$$V2.0
SMILES: CC(=O)N[C@@H](C)C(=O)N[C@@H](CO)C(=O)N[C@@H](CC(C)C)C(=O)N[C@@H](CCCNC(=N)N)C(=O)N[C@@H](Cc1cscn1)C(=O)N[C@@H](Cc1ccccc1)C(=O)N[C@@H](CC(C)C)C(=O)N[C@@H](CC(N)=O)C(=O)N[C@@H](CC(C)C)C(=O)N[C@H](C(=O)N[C@H](C(=O)N[C@@H](CCCNC(=N)N)C(=O)N[C@@H](CCC(N)=O)C(=O)N[C@@H](CCCNC(=N)N)C(=O)N[C@@H](Cc1ccc(O)cc1)C(N)=O)[C@@H](C)O)C(C)C

The remaining lines, values behind:

Molecule: CC(=O)N[C@@H](C)C(=O)N[C@@H](CO)C(=O)N[C@@H](CC(C)C)C(=O)N[C@@H](CCCNC(=N)N)C(=O)N[C@@H](Cc1ccc(Cl)cc1)C(=O)N[C@@H](Cc1ccc(O)cc1)C(=O)N[C@@H](CC(C)C)C(=O)N[C@@H](CC(N)=O)C(=O)N[C@@H](CC(C)C)C(=O)N[C@H](C(=O)N[C@H](C(=O)N[C@@H](CCCNC(=N)N)C(=O)N[C@@H](CCC(N)=O)C(=O)N[C@@H](CCCNC(=N)N)C(=O)N[C@@H](Cc1ccc(O)cc1)C(N)=O)[C@@H](C)O)C(C)C [N-α-Ac-[p.ClPhe^26]PYY(22-36), N-α-Ac-A S L R [p.Cl.Phe^26] Y L N L V T R Q R] (HELM PEPTIDE1{[ac].A.S.L.R.[O=C([C@H](Cc1ccc(Cl)cc1)N[*:1])[*:2]].Y.L.N.L.V.T.R.Q.R.Y.[am]}$$$$V2.0)
IC50 [1]: 50 nM
EC50 (rat jejunal mucosa [2]): 124 nM

Molecule: N-α-Ac-PYY(22-36) (peptide)
IC50 [3]: 0.08 nM
IC50 [4]: 1.12 nM
fold increase of receptor affinity against PYY(22-36) [5]: 4 times
SCC EC50 [6]: 40 nM

Molecule: Ac-ASLRHFLNLVTRQRY-NH2 [N-α-Ac-[Phe^27]PYY(22-36)]
maximal inhibitory response (change in SCC) (rat jejunal mucosa [2]; 1.4 μM, n=7): -12.0±1.3 μA/0.6 cm^2
EC50 (rat jejunal mucosa [2]): 15.1 nM
times less potent than the intact hormone (antisecretory potency) (rat jejunal mucosa [2]; relative to PYY): 9 times

Molecule: [Pro^34 ]NPY: Y-1 selective agonist
sensitivity of rat jejunal epithelial receptors to agonist (rat jejunal mucosa [7]): completely insensitive

Molecule: N-α-naphthaleneacetyl-PYY(22-36) (peptide)
SCC EC50 [8]: > 30000 nM
SCC EC50 [6]: 19500 nM

Molecule: PYY (peptide YY) (ligand)
IC50 [3]: 0.04 nM
IC50 [9]: 0.1 nM
SCC EC50 of PYY after treatment of the tissue with the analog (1 µM) [8]: 4.4 nM
SCC EC50 of PYY, nontreated controls [8]: 2.6 nM
maximal inhibitory response of SCC [10]: -12.6 µA/0.6 cm^2
IC50 [4]: 0.2 nM
SCC EC50 [6]: 1.7 nM

Molecule: Ac-ASLRHYENLVTRQRY-NH2 [N-α-Ac-[Glu^28]PYY(22-36), N-α-Ac-A S L R H Y [Glu] N L V T R Q R Y--NH2]
IC50 [1]: 44.7 nM
EC50 (rat jejunal mucosa [2]): 3000 nM

Molecule: Ac-ASLRH[Phe(4-Cl)]LNLVTRQRY-NH2 [N-α-Ac-[Pcp^27 ]PYY(22-36)]
IC50 [9]: 1.58 nM

Molecule: FSLRHFLNLVTRQRY (not fully specified; N-terminal acetyl; C-terminal amide) [N-α-Ac-[Phe^22,27 ]PYY(22-36)]
IC50 [9]: 11.2 nM

Molecule: Ac-ASLRHYENLVTRQRY-NH2 [N-α-Ac-[Glu^28 ]PYY(22-36)]
IC50 [4]: 44.7 nM
SCC EC50 [6]: 3000 nM
